Source: paper PMC9233703

Legend:
[1] = biological target: bovine brain tubulin polymerized into the microtubule lattice (bovine) (UniProt Q6B856); experiment: motor-pulling assay (TIRF microscopy); taxol-stabilized microtubules, 10 μM taxol, held by digoxigenin-labeled tubulin; 3.8 kb biotinylated DNA linker; 6 nM biotinylated kinesin-1; 1 mM ATP, 28 °C
[2] = biological target: bovine brain tubulin polymerized into the microtubule lattice (bovine) (UniProt Q6B856); experiment: optical tweezer force spectroscopy; taxol-stabilized microtubules copolymerized with biotinylated tubulin, affixed to neutravidin-coated coverslip; single tubulin pulled by its α-tubulin CTT through an 8.2 kb DNA linker and an anti-digoxigenin bead, perpendicular to the microtubule axis; constant pulling velocity 0.32 μm/s; BRB80, 10 μM taxol
[3] = biological target: bovine brain tubulin polymerized into the microtubule lattice (bovine) (UniProt Q6B856); experiment: motor-pulling assay (TIRF microscopy); GDP-microtubules with GMPCPP-tubulin caps held on the surface by anti-digoxigenin antibody; tubulin with 3.8 kb biotinylated DNA linker pulled along the microtubule axis by biotinylated kinesin-1 (0.5-9 nM) joined via neutravidin; 1 mM ATP, SYTOX Green, 28 °C

bovine brain tubulin labeled with an oligo-DNA handle on the α-tubulin C-terminal tail (SSL method), hybridized to a long DNA linker (from UniProt Q6B856 1-445) (complex)
median rupture time under pulling by kinesin-1 (6 nM) [1]: 18 s | force typically required to remove tubulin from the lattice [2]: 30 pN | lifetime in the lattice at zero force estimated from the rupture force histogram (Dudko method, single-step extraction) [2]: 40 s | rupture force [2]: 33.8 pN | decay time of the rupture-time histogram (4.5-9 nM biotinylated kinesin) [3]: 8.8 s | median rupture time under pulling by kinesin-1 (plateau at high kinesin concentration) [3]: 8 s | percentage of DNA remained on the microtubules after 5 min with 6 nM biotinylated kinesin-1 [3]: 59%
